According to patent publication US20150038408A1 (University of Washington, published 2015):
Like-named read-outs stand apart in the source and are kept apart here.

B1: HB80.1 (Met26Thr, Asn36Lys) (designed binder)
chain: MASTRGSGRPWDFSENLAFELALAFTNKDTPDRWAKVAQYVSGRTPEEVKKHYEILVEDIKYIESGKVPFPNYRTTGGNMKTDEKRFRNLKIRLE
B2: HB36.1 (Asp47Ser) (designed binder)
chain: MSNAMDGQQLNRLLLEWIGAWDPFGLGKDAYDVEAEAVLQAVYETESAFDLAMRIMWIYAFAFNRPIPFPHAQKLARRLLELKQAASSPLPLE

Columns and labels:
[1] = molecular target: T1, A/South Carolina/1/1918 (H1N1) hemagglutinin ectodomain (Influenza A virus A/South …)
[2] = molecular target: T1, A/South Carolina/1/1918 (H1N1) …; remark: listed apart in the source
[3] = molecular target: T1, A/South Carolina/1/1918 (H1N1) …; remark: listed apart in the source
[4] = molecular target: T1, A/South Carolina/1/1918 (H1N1) …; remark: listed apart in the source

Binder | Kd [1] [nM] | Kd [2] [nM] | fold increase in binding affinity against HB36 [3] [fold] | Kd [4] [nM]
B1 | 7.5 | 7.5 | – | –
B2 | 5 | – | ~40 | 2 to 5
